In patent US12208130B2, “Treatment of women affected with polycystic ovary syndrome” (INSTITUT NATIONAL DE LA SANTE ET DE LA RECHERCHE MEDICALE …, priority 2017, dated 2025):
Where a SMILES comes first, the peptide text is derived from it. [ ]: non-standard residue; d: D form. dPhe(4-Cl) = N[C@H](Cc1ccc(Cl)cc1)C(=O)O; d2Nal = N[C@H](Cc1ccc2ccccc2c1)C(=O)O; dCit = NC(=O)NCCC[C@@H](N)C(=O)O; d3Pal = N[C@H](Cc1cccnc1)C(=O)O

B1: proAMH: AMH proprotein (Origene Technologies, Cat # TP308397), injected prenatally 0.12 mg/Kg/d (protein, UniProt P03971 25-560, looked up)
pro-form: LRAEEPAVGTSGLIFREDLDWPPGSPQEPLCLVALGGDSNGSSSPLRVVGALSAYEQAFLGAVQRARWGPRDLATFGVCNTGDRQAALPSLRRLGAWLRDPGGQRLVVLHLEEVTWEPTPSLRFQEPPPGGAGPPELALLVLYPGPGPEVTVTRAGLPGAQSLCPSRDTRYLVLAVDRPAGAWRGSGLALTLQPRGEDSRLSTARLQALLFGDDHRCFTRMTPALLLLPRSEPAPLPAHGQLDTVPFPPPRPSAELEESPPSADPFLETLTRLVRALRVPPARASAPRLALDPDALAGFPQGLVNLSDPAALERLLDGEEPLLLLLRPTAATTGDPAPLHDPTSAPWATALARRVAAELQAAAAELRSLPGLPPATAPLLARLLALCPGGPGGLGDPLRALLLLKALQGLRVEWRGRDPRGPGRAQRSAGATAADGPCALRELSVDLRAERSVLIPETYQANNCQGVCGWPQSDRNPRYGNHVVLLLKMQVRGAALARPPCCVPTAYAGKLLISLSEERISAHHVPNMVATECGCR
modifications: pro-form
notes: AMH proprotein (Origene Technologies, Cat # TP308397), injected prenatally 0.12 mg/Kg/d

Tested on: C57BL6/J (B6) dams and their female offspring
Assay: Plasma testosterone, LH and LH pulsatility in adult diestrus female offspring
Format: in vivo, mouse
Protocol: FIGS. 3A-3J-4. Prenatal AMH treatment leads to hyperandrogenism and elevation in LH secretion/pulsatility. (FIG. 3A) Anogenital distance (AGD) was measured over post-natal days (P) 30, 35, 40, 50, and 60 in adult female control (n=6-14), PAMH (n=11-19), PAMH+GnRH antag (n=10), and GnRH antag (n=4) mice. […] One-way ANOVA and Tukey's multiple comparison post hoc test, F(19-183)=130.1, ***P<0.0001 among treatment groups and ages (P30, F(3, 43)=84.48, *P<0.05, ***P<0.0001; P35, F(3, 43)=116.9, *P<0.05, ***P<0.0001; P40, F(3, 43)=207.5, *P<0.05, ***P<0.0001; P50, F(3,27)=72.69, ***P<0.0001; P60, F(3,27)=110.5, ***P<0.0001). Bars from left to right in each group: Control, PAMH, PAMH+GnRH antag, GnRH antag. (FIG. 3B) Plasma testosterone was measured in adult females (P60) in diestrus. […] One-way ANOVA and Tukey's multiple comparison post hoc test, F(2,12)=28.67, ***P<0.0001. Bars from left to right: Control, PAMH, PAMH+GnRH antag. (FIG. 3C) Plasma LH was measured in adult females (P60) in diestrus. […] One-way ANOVA and Tukey's multiple comparison post hoc test, F(2,24)=257.3, *P<0.05, ***P<0.0001. Bars from left to right: Control, PAMH,
PAMH+GnRH antag. (FIG. 3D) Schematic representation of tail-tip blood sampling in adult diestrus female mice (3-4 months old). (FIG. 3E) Tail blood was collected every 10 min for 2 h and LH measured from 10 a.m-12 p.m in adult (P60) diestrus females (Control, n=8; PAMH, n=10; PAMH+GnRH antag, n=9; One-way ANOVA and Tukey's multiple comparison post hoc test, F(2,24)=57.06, *P<0.05, ***P<0.0001). Bars from left to right: Control, PAMH, PAMH+GnRH antag. (FIGS. 2F-1, 2F-2, 2F-3) Representative graphs for LH pulsatility over 2-hr in one female adult (P60) mouse of each treatment. Asterisks in (FIG. 3F) indicate the number of LH pulses/2-hr. (FIG. 3G) Mean circulating testosterone and LH levels were analyzed in pregnant PBS-treated (n=4) and AMH-treated (n=4) dams at embryonic day (E) 19.5 of gestation. […] (FIG. 3H) Relative mRNA expression of placental Cyp191a (aromatase) in control (n=4) and AMH (n=4)-treated pregnant animals at E19.5. Cyp191a expression in the placenta is higher in AMH-treated pregnant dams as compared to control-treated pregnant dams (Unpaired Student's t-test, t(6)=5.414, **P<0.005). Values are expressed as relative to the mean of each treatment. All values are expressed as mean±s.e.m. (FIGS. 3I-1, 3I-2, 3I-3, 3I-4) Dams were injected from E16.5 to E18.5 with either PBS (vehicle, n=9-11), AMH (n=8-10), AMH+GnRH antag (n=5) and trunk blood was collected at E19.5 for hormonal measurements by ELISA. Data were combined from at least two independent experiments. In FIGS. 3I-1, 3I-2, 3I-3, 3I-4: left bar: vehicle; middle bar: AMH; right bar: AMH+GnRH antagonist. […]

[1] = dams i.p. 0.12 mg/Kg/d E16.5-E18.5, adult female offspring in diestrus vs control

Molecule	PCOS-like neuroendocrine traits in the offspring (prenatal co-treatment of AMH with the GnRH antagonist)	plasma LH [1]	plasma testosterone [1]	LH pulse frequency / pulsatility (dams i.p. 0.12 mg/Kg/d E16.5-E18.5, adult female offspring in diestrus, tail blood every 10 min for 2 h)
CC(=O)N[C@H](Cc1ccc2ccccc2c1)C(=O)N[C@H](Cc1ccc(Cl)cc1)C(=O)N[C@H](Cc1cccnc1)C(=O)N[C@@H](CO)C(=O)N[C@@H](Cc1ccc(O)cc1)C(=O)N[C@H](CCCNC(N)=O)C(=O)N[C@@H](CC(C)C)C(=O)N[C@@H](CCCNC(=N)N)C(=O)N1CCC[C@H]1C(=O)N[C@H](C)C(N)=O [Cetrorelix acetate, Ac-D-2Nal-D-Phe(4-Cl)-D-3Pal-Ser-Tyr-D-Cit-Leu-Arg-Pro-D-Ala-NH2] (Ac-[d2Nal][dPhe(4-Cl)][d3Pal]SY[dCit]LRP[dA]-NH2)	prevented the appearance	–	–	–
B1	–	increased	increased	constitutively high LH pulsatility
